Source: US20240026407A1, “MODIFICATION OF SAPONINS” (GLAXOSMITHKLINE BIOLOGICALS SA, priority 2020, published 2024)

B1: 999 (protein, listed as Prevotella ruminicola)
chain: MRKFLTIICVACCYASATFAQAWPQPKPEAKPGTRWWWLGSAVNQRDLQWNLQEYARAGIGAVEITPIYGVKGNDANNIAYLSPQWMQALQSVQDIARPLGIEVDMNCGTGWPFGGPHISLDQAACRAIIKDTIINGKHQYEVEIGHTKQKVKRAAPGGEGWVVDHFDRNAVAHYLDRFEQAFATSGVPYPHTFFNDSYEVYKADWTPTLFDEFQKRRGYDLRTKLPELLGKVDDGNQTLADYRETLSDMLLENFTQQWVAWAHKHGVKVRNQAHGSPANLLDLYAAVDIPEIEGFGLSEFGIKGLRTDPGKTRKNDSDVSMLKYASSAAHVMGKPFTSSETFTWLTEHFRTSLSQMKPDLDLMFTCGVNHVYFHGSCYTPQNAAWPGWKFYASVDMSPTNSIWRDAPFLMKYIERSQSFLQLGEPDNDFLVYLPVRDMWHQRDNNNTLLMQFDIHSMAKKAPQFIRSILTIDSLGYDCDYISDRQLAKVRMQDGMLVTEGGTRYKALIIPSGTTIDASLQAQINRLNAYVIRGEQAADMAKFAKAEQMKTTYGLRAIRRHTADGWHYFIVNLTPKDITGDVTLAVPFESATWFNPMNGDIQPAEVHNGQLHIALKSGESRILQTSNQPSTNITTTASGTEEITLQGPWVLSFTDESPRVEGTFKLNKLQTWETLSDSAAVTMGTGVYTTSIKLSAQQAKQHWQIDLGDVRESARVYINSQFVGCAWAVPFILDCGNTLHKGKNEIRIEVTNLPANRIAELDRKGVQWRKFNEINVVDINYKNTTYADWKPVPSGLNTTVKLVR
B2: 1075 (protein, listed as Asticcacaulis sp.)
chain: MTRLNRRHFLAASGLAATVAPTMSRSKTLAKTALGVTDLRAEQSENLLGTQAREPRLSWRLTGTERGIMQAGYRLRAGSKPGTADLWDSGNIASDACFDIPYKGKPLNAMQRVWWTVEVRDAKGRTATSAPAWFETGLLAPGDWKAQWIVAEDALAEGDRKAGLQWIWSEKALDNRLHAFRLDFDVPANLASSEVLIAGKDWIRGVWANGEQLPTPDQLVPNWGTLVPVPAKLKPGKNSVCVLVQAETTGFFPVDGGAFAALIRLRLSDGTIKRLVSDTNWKVRPLPPEAWTTADFDASGWVRAQKSGADAQNDPRPAEPAMLLRKAFTPAKKVVNARLYATALGAYEARLNGQPVSTAKMAPEISVTKDHIYYQTYDVTKLIRAGDNALGVVMGDGFYASAFGWRLERYGFGPAPRRLLAQLRLDYADGTSEWIVTDDSWRIGQSPIVTSEIYDGEVFDARLKTDGWDKTGFNAARWPAVRLGQAPHTKIVAQTGPLLVPVSKRRGTITQPKPGIYVIDFGQNFAGWARLNVKGTSGHTVTLKFAEYLKADGEVDQANLRMAKCRDIYTLRGDAGGETFEPSFTYHGFRYVQVENFPGVPTPADIEGIVVTSYCRETGRMTFDDPIIQKFWQNSVWSQRSNFFMVPTDCPQRDERMGWMGDIQVFLDAATFNMECDPFIRRYLDEVRASQTAEGAFPIVCPQPESFPEVTTAGWSEAGVILPWTLWRRYGDTAVIDENWVAMTKWMDYLFKYNPDYVWRKERGLDLGDWLSVDAVKPDDETTPRILCATGYWAYCADLMTQMAAATGREAEAAKYREVRAKIGAAFAKEFVDKDGKAGNGSQTSQILALYFNLVPAERRAAAGEILAKEIRGRGMKLSTGFLGTPYLLDVLADTGHLEEVSGLLKQREKPSWGYMPLKGATTMWERWDGDTGDLAMNSYNHYAYGAVCGFMYRRLAGLAPAAPGFRKMTVEPIYLPHVGKVTANYESCLGTMAGAVTGNASGLKTYDLTVPPNAVAEVILPDGAWREGGKALTGHADIRALRRDSGKVRFEVGSGSYRFKI
B3: 1055 (protein)
chain: MRKAMILLTACLLSGTSALAADTLRDGFQTPPDSAKPRVWWHWLGNNVTADGIDKDLAWMRRVGIGGFQLFSGNLETPLLVDKPVVVFSPEWRAMVRHAAERADALGLEMTMAASAGWSETGGPWVKPEQAMKKLVWSETVITGAKRFQGRLPSPPTGNGPFQDMPMPPELRLPPPPPVPGARPRPPAAAHGPSPSYYADVAVVAYRLPDAVVPLGSLKPRISSSAGDAAILSDGRYDAPLRLEQKTPDGQLAWVEYTFDKPVSLPAVTLAATIEDPLNALSPSGVVEVADENGTFRDLVRVAPQEPVAFPAAAPVRTVALPEASSRRWRFRLDPIPPQALALPGMPQQTVHAVTELRFETEAMVDRWQAKAAYDTMRSYDTGPQPVRPVPARDQVVNLTARIGADGTLDWTPPPGRWQVLRIGYSLTGAKNHPADPEGTGFEVDKLDAAAVRAYLEGYLGPIDQALGDLRGAKGLKNLLTDSWEAGQANWTPALPAEFKRRRGYDLTPWLPVLTGRVVGSAADSERFLWDFRRTIADLLAEAHYKTIRDFAHEKGLGYYGEAMGTRLPTTGDGLLNKRYTDIPMGEFWQMPPGAPSDPAHTSDIAEAASAAHFYGQNLVAAEAFTALPFMPPFTATPAALKPFADRFLARGVNRFVIHTSVHQPSDDLRPGITLGPFGQYFTRHETWAEQAGAWMSYLSRSSYLQQQGRHVADIAWFVGEGGAISAPDPDRLSPALPKGYRLDFVARDAVTELLSVKDGHLLAPSGVVYRLLVVPPDARSGDLKLSLAVLRRLRDLLNQGAAVLAPRPTGSTSLSDDPAQVAALIGELWGVDTPIPRSIGKGRLYPAPDIAAALADRGVAPDLTMAGAMDADIVWSHRRTDDADIWFVANQKDRAESVTLSLRGDGRDVSLWHADSGAVEPAPFRQEAGRTSVPLTLSPNQAIFIVQRGSAPATARDVATPVEAESLALSGVWTLFFPKGQAMPDSVPLPKLGLWNDMSDPAVRHFSGTATYATEVKLPAAWAGKPVWIDLGAVHEVATVRVNGTEAGIAWKQPYRIDVGPLLKAGTNKLEVAVSNLWPNRIVGDAGGAGGVRVTTNTHPLLHPDTKARLLPSGLAGPVRLVRMELPGGNG
modifications: alpha proteobacterium
B4: 1001 (protein, listed as Brachybacterium faecium)
chain: MNSAPASPADTPSAGAGRPAAQLQDALAITAVEDTGRLPQLVHTVTLAQPRDQVRRAELLATAHGLYEMRIGGAPATESVLNPGWTTYERRLQVQRLDVTAQVRQRPEGLAAADADRLDLEATLADGWWRGDLGFDGGVRYGDDLALLAAVEIEFADGTRQRVVTDESWRSRPSAIMSANIYHGQHEDRRLGLGPETPVRVVEIDRSTLVEQVSPPVLRHESRRPERIWTSPAGRTLVDFGQNLVGWLRFTVTGPEGTEIVLRHAEVLEDGELGTRPLRAARATDRLVLAGDPAGETFEPTFTFHGFRYAEISGWPGELAAEDLEAVVVHSALRRTGWFECSHAGVNQLISNSLWSQRGNFLSVPTDCPQRDERLGWTGDIAAYAATAAFQHDVGDFLHGWLLDLGQEARMNPHGIVPFVVPDLLKPGLGAGDPAAADEGWGTPTAIWGDAAVWVAEALWTAYGDLDRLRAHYPAMVRHLDSVDRALSPSGLWDTGFQFGDWLDPDAPPEAADRAKADKGVVATACLVRSARFAAQAARLLGEEVDARRWQGLAERTLAAFTTAYVHENGTITSDCATVYALAIAFDLLDAGTRPRAAARLAEVVAEAGHRVSTGFAGTPFVTWALSETGHVEEAYRLLLEEGCPSWLYPVSMGATTIWERWDSMLPDGSINPGEMTSFNHYALGAVADWVYQVVLGVRPAAPGYRRIRIQPVPGPGIEWAEGAHDSAAGRIEVSWEHSADGLRGTATIPEGAEAEIVLPDGRARTVGPGRHSF

How the values were obtained:
Format in all cases: biochemical, Quillaja saponaria
[1] = Experiment 6-1: screening of rhamnosidases for derhamnosylation of saponins in treated bark extract (2%), desglucosyl-QS-17 2134 to QS-21 1988 (PAR %); conditions: TBE 2%, pH 7.5, 30 degC, 18 h; TIC peak area ratio percent, LCMS/MS; negative controls 2.719, 2.158
[2] = Experiment 6-1: screening of rhamnosidases for derhamnosylation of saponins in treated bark extract (2%), QS-17 2310 to QS-18 2164 (PAR %); conditions: TBE 2%, pH 7.5, 30 degC, 18 h; TIC peak area ratio percent, LCMS/MS; negative controls 3.061, 2.429
[3] = Experiment 6-1: specificity of rhamnosidases towards other rhamnose residues (C3 saccharide rhamnose, C28 saccharide rhamnose); conditions: TBE 2%, pH 7.5, 30 degC, 18 h; LCMS/MS; negative controls 0.18, 0.17
[4] = Experiment 6-1: screening of rhamnosidases for derhamnosylation of saponins in treated bark extract (2%), QS-17 2296 to QS-18 2150 (PAR %); conditions: TBE 2%, pH 7.5, 30 degC, 18 h; TIC peak area ratio percent of rhamnosylated starting saponin to derhamnosylated product, LCMS/MS; negative controls 4.876, 5.225
[5] = Experiment 6-2: screening of rhamnosidases for derhamnosylation of saponins in treated bark extract (25%), relative % of Left, Middle and Right Peak by UV HPLC; conditions: TBE 25%, pH 7.4, 19.5 h; for Left Peak: mainly QS-17 family, negative control 24%; for Middle Peak: mainly QS-18 and desglucosyl-QS-17 family, negative control 50%; for Right Peak: mainly QS-21 family, negative control 26%
[6] = Experiment 6-3: screening of rhamnosidases for derhamnosylation of saponins in crude bark extract (80%), relative % of Left, Middle and Right Peak by UV HPLC; conditions: CBE 80%, pH 7.4, 30 degC, 19.5 h; for Left Peak: mainly QS-17 family, negative control 27%; for Middle Peak: mainly QS-18 and desglucosyl-QS-17 family, negative control 48%; for Right Peak: mainly QS-21 family, negative control 26%
Description: Selected variants were expressed and lysed as in the method of experiment 6-1.
Crude bark extract (CBE) solution was adjusted to pH 7.4 by addition of NaOH (2M). 20 uL clarified lysate was transferred into fresh 96 well PCR plates. 80 uL CBE solution (pH 7.4) was added to each well of lysate to a final concentration of 80%. Plates were incubated at 30 degC with shaking for 19.5 h.
Quenched with 100 uL MeCN+2% AcOH and shaken at room temperature for 10 mins prior to centrifugation (10 min, 4 degC) to remove particulates. Samples were analysed by UV HPLC using method of Experiment 4-4.
Three key peaks of interest are apparent using this chromatography: Left Peak (retention time approximately 2.30-2.35 min) comprising mainly QS-17 family components; Middle Peak (retention time approximately 2.37-2.42 min) comprising mainly QS-18 family components and desglucosyl-QS-17 family components; and Right Peak (retention time approximately 2.44-2.50 min) comprising mainly QS-21 family components. Peak identity was supported by MS/MS.
Enzyme mediated hydrolysis of the alpha-O-rhamnosylation at the C2 position of the arabinofuranose moiety of QS-17 family components leads to a decrease in Left Peak and an increase in Middle Peak due to formation of QS-18 family components. Enzyme mediated hydrolysis of the alpha-O-rhamnosylation at the C2 position of the arabinofuranose moiety of desglucosyl-QS-17 family components leads to a decrease in Middle Peak and an increase in Right Peak due to formation of QS-21 family components.
The relative percentage of each peak was determined. A decrease in Left Peak and a concomitant increase in Middle Peak and Right Peak is observed for enzymes active under these conditions.

Row | Molecule | Peak75 (PAR %) [1] | Peak57 (PAR %) [2] | ratio PP/QS-21 [3] | QS-17 (PAR %) [4] | Left Peak [5] | Middle Peak [5] | Right Peak [5] | Left Peak [6] | Middle Peak [6] | Right Peak [6]
1 | B1 | 2.571% | 2.714% | 0.16 | 5.614% | – | – | – | – | – | –
2 | B2 | 0.000% | 0.000% | 0.18 | 0.043% | 9% | 61% | 30% | 26% | 47% | 27%
3 | B3 | 0.000% | 0.000% | 0.19 | 0.019% | 7% | 62% | 31% | 25% | 48% | 27%
4 | B4 | 0.137% | 0.000% | 0.19 | 0.075% | 14% | 59% | 27% | 31% | 45% | 24%
